Reference: IntAct's records for PubMed 35512704

B1: Mothers against decapentaplegic homolog 4 (Homo sapiens), Q13485 (parent)
chain: MDNMSITNTPTSNDACLSIVHSLMCHRQGGESETFAKRAIESLVKKLKEKKDELDSLITAITTNGAHPSKCVTIQRTLDGRLQVAGRKGFPHVIYARLWRWPDLHKNELKHVKYCQYAFDLKCDSVCVNPYHYERVVSPGIDLSGLTLQSNAPSSMMVKDEYVHDFEGQPSLSTEGHSIQTIQHPPSNRASTETYSTPALLAPSESNATSTANFPNIPVASTSQPASILGGSHSEGLLQIASGPQPGQQQNGFTGQPATYHHNSTTTWTGSRTAPYTPNLPHHQNGHLQHHPPMPPHPGHYWPVHNELAFQPPISNHPAPEYWCSIAYFEMDVQVGETFKVPSSCPIVTVDGYVDPSGGDRFCLGQLSNVHRTEAIERARLHIGKGVQLECKGEGDVWVRCLSDHAVFVQSYYLDREAGRAPGDAVHKIYPSAYIKVFDLRQCHRQMQQQAATAQAAAAAQAAAVAGNIPGPGSVGGIAPAISLSAAAGIGVDDLRRLCILRMSFVKGWGPDYPRQSIKETPCWIEIHLHRALQLLDEVLHTMPIADPQPLD
partner: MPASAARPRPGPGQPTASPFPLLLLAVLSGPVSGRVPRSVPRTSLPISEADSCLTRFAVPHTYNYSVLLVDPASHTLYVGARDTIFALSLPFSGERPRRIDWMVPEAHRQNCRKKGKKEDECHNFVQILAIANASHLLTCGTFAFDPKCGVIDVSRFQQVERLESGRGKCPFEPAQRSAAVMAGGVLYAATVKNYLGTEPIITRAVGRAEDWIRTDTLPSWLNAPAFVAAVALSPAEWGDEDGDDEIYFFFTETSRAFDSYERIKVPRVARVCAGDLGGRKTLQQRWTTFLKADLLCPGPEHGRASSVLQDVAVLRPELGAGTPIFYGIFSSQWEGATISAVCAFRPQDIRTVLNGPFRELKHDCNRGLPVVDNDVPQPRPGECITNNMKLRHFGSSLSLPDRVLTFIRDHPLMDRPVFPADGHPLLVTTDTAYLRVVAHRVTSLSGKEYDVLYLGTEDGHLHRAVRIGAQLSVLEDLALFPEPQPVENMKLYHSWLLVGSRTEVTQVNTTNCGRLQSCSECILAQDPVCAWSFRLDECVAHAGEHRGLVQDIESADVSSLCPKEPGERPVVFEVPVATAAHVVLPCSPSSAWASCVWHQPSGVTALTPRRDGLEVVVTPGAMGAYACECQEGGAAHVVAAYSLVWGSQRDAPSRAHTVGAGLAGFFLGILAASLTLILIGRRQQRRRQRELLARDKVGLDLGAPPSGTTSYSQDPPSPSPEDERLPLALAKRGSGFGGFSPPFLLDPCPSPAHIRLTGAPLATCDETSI
B2: Mothers against decapentaplegic homolog 4 (Homo sapiens), Q13485 (parent)
chain: B1 chain
partner: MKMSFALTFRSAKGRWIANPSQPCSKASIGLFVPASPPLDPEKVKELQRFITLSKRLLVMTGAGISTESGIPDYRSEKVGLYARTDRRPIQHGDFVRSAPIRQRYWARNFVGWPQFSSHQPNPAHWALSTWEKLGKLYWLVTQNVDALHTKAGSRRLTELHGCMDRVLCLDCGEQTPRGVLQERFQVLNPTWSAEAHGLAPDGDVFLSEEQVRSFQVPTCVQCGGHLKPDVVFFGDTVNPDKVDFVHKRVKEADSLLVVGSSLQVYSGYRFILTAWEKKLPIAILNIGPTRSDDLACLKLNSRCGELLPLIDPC
B3: Mothers against decapentaplegic homolog 4 (Homo sapiens), Q13485 (parent)
chain: B1 chain
partner: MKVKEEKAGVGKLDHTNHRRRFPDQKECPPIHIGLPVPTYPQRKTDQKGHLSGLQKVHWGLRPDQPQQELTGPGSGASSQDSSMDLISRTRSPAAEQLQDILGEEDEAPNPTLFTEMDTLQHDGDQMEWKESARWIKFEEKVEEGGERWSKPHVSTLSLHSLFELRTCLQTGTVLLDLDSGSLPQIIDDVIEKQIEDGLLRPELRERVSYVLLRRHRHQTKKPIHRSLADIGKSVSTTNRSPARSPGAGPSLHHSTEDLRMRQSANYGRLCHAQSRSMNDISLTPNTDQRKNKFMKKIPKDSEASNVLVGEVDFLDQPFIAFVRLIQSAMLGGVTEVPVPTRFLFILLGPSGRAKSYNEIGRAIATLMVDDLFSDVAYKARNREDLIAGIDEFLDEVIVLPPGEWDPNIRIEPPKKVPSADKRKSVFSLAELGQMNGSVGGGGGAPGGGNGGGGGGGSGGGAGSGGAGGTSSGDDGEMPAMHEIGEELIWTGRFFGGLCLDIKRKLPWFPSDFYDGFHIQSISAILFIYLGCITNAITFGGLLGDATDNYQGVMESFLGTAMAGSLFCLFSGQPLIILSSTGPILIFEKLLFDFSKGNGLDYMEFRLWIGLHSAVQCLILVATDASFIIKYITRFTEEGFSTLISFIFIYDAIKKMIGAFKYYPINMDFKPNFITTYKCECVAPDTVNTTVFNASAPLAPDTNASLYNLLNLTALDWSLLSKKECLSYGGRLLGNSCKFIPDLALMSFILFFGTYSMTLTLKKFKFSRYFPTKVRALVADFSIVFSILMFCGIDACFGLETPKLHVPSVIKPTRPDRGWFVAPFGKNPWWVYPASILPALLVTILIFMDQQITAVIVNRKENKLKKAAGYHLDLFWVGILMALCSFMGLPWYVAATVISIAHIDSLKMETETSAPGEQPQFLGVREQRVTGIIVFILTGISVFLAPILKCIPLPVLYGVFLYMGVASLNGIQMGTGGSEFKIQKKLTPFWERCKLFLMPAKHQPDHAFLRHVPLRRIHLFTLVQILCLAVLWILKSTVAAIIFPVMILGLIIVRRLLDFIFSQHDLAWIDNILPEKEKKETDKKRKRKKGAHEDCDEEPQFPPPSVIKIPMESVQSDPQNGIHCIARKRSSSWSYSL
B4: Mothers against decapentaplegic homolog 4 (Homo sapiens), Q13485 (parent)
chain: B1 chain
partner: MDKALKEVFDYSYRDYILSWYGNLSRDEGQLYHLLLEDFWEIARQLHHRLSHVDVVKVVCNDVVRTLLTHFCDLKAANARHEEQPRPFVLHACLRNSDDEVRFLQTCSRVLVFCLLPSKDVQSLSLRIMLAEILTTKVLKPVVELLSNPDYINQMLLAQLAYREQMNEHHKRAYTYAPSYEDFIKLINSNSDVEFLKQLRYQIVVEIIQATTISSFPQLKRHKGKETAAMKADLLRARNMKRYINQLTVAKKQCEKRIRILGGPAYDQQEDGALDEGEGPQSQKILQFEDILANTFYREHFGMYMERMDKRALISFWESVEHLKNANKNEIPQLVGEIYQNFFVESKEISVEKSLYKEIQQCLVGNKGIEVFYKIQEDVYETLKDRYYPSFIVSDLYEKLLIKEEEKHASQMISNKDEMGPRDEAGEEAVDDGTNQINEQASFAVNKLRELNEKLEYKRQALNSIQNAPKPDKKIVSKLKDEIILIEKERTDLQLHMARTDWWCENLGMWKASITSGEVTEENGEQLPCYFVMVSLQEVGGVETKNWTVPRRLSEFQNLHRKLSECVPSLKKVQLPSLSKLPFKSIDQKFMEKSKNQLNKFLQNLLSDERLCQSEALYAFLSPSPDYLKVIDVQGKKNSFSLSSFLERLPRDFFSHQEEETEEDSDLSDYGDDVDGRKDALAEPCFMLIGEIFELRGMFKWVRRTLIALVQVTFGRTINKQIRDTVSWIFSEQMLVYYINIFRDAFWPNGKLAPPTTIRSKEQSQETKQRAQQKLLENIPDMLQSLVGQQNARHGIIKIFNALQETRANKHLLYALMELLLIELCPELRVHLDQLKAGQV
B5: Mothers against decapentaplegic homolog 4 (Homo sapiens), Q13485 (parent)
chain: B1 chain
partner: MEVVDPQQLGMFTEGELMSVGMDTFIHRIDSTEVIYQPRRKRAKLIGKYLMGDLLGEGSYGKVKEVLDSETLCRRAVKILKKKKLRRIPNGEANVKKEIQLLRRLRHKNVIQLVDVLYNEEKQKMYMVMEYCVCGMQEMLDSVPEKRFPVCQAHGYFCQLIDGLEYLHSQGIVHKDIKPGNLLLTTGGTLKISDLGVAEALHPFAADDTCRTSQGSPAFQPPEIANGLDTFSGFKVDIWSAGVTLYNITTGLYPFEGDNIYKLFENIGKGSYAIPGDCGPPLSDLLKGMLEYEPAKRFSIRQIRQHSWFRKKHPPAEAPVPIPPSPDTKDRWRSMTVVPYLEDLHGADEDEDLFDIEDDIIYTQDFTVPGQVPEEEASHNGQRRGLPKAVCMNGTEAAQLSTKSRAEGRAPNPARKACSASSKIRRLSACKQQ
B6: Mothers against decapentaplegic homolog 4 (Homo sapiens), Q13485 (parent)
chain: B1 chain
partner: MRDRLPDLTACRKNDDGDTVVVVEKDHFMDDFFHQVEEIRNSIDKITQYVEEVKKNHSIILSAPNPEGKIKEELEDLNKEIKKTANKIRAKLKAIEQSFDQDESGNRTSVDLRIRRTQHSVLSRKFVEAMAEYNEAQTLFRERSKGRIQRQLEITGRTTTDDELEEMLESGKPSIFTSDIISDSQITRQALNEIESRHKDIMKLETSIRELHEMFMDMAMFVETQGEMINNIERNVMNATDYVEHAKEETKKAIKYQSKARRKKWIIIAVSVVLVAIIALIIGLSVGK
B7: Mothers against decapentaplegic homolog 4 (Homo sapiens), Q13485 (parent)
chain: B1 chain
partner: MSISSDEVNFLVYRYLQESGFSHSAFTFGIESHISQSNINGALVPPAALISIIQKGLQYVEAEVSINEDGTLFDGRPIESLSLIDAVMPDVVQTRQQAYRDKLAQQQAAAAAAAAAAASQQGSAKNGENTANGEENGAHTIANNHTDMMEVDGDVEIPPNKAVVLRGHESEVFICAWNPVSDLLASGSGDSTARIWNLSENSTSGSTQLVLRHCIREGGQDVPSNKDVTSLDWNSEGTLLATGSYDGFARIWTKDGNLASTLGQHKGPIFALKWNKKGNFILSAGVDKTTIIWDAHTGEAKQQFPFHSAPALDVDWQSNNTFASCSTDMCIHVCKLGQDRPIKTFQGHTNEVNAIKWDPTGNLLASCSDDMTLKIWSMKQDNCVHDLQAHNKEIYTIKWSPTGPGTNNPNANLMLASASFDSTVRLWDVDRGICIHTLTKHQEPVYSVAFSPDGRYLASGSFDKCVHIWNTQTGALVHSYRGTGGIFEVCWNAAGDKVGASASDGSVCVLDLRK

Variants of: B1
Conditions: with sem4f_human SEMA4F

| Variant | effect of a mutation on the interaction |
| --- | --- |
| R361C | with no effect |

Variants of: B1
Conditions: with sem4f_human SEMA4F
Remark: another data set of the same source

| Variant | effect of a mutation on the interaction |
| --- | --- |
| R361H | with no effect |

Variants of: B2
Conditions: with sir4_human SIRT4, Q9Y6E7

| Variant | effect of a mutation on the interaction |
| --- | --- |
| G386D | with no effect |

Variants of: B3
Conditions: with s4a5_human SLC4A5, Q9BY07

| Variant | effect of a mutation on the interaction |
| --- | --- |
| G386D | with no effect |

Variants of: B3
Conditions: with s4a5_human SLC4A5, Q9BY07
Remark: another data set of the same source

| Variant | effect of a mutation on the interaction |
| --- | --- |
| R361C | with no effect |

Variants of: B4
Conditions: with snx25_human SNX25, Q9H3E2

| Variant | effect of a mutation on the interaction |
| --- | --- |
| G386D | with no effect |

Variants of: B4
Conditions: with snx25_human SNX25, Q9H3E2
Remark: another data set of the same source

| Variant | effect of a mutation on the interaction |
| --- | --- |
| R361H | with no effect |

Variants of: B5
Conditions: with stk11_human STK11, Q15831

| Variant | effect of a mutation on the interaction |
| --- | --- |
| G386D | with no effect |

Variants of: B6
Conditions: with stx2_human STX2, P32856

| Variant | effect of a mutation on the interaction |
| --- | --- |
| G386D | with no effect |

Variants of: B7
Conditions: with tbl1r_human TBL1XR1, Q9BZK7

| Variant | effect of a mutation on the interaction |
| --- | --- |
| G386D | with no effect |
